In article PMC4890538 (Angewandte Chemie (International ed. in English), 2015):

Columns and labels:
[1] = target: T1, IL17-F (Interleukin member of the highly homologous IL-17 family) (UniProt Q96PD4 31-163)
T1 sequence (looked up): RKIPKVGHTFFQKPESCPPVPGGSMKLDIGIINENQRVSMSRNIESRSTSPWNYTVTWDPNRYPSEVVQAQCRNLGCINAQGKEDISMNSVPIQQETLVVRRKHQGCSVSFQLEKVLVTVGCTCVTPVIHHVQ

[2] = target: L1R, vaccinia virus L1R myristyl protein (vaccinia virus, UniProt P07612 1-250)
[3] = target: p-Akt2 (phospho serine / threonine kinase) (UniProt P31751 1-481)

B1: Cy(RRATS-click) (peptide)
peptide: RRATS
For B1, the EC50 [1] was 66 nM.

B2: Cy(DARNI-click) (peptide)
peptide: DARNI
For B2, the EC50 [2] was 875 nM.

B3: Cy(YYTYT-click) (peptide)
peptide: YYTYT
Binder B3 has an EC50 [3] of 122 nM.
